{"source": "paper PMC3303177", "binders": {"B1": {"name": "hMT AP-2 consensus probe (dsDNA)", "DNA 1": "TGACCGCCCGCGGCCCGTG", "DNA 2": "CACGGGCCGCGGGCGCTCA"}}, "key": {"GST-AP-2β": {"molecular_target": "GST-AP-2β (UniProt Q92481 1-460)", "sequence (Q92481 whole entry)": "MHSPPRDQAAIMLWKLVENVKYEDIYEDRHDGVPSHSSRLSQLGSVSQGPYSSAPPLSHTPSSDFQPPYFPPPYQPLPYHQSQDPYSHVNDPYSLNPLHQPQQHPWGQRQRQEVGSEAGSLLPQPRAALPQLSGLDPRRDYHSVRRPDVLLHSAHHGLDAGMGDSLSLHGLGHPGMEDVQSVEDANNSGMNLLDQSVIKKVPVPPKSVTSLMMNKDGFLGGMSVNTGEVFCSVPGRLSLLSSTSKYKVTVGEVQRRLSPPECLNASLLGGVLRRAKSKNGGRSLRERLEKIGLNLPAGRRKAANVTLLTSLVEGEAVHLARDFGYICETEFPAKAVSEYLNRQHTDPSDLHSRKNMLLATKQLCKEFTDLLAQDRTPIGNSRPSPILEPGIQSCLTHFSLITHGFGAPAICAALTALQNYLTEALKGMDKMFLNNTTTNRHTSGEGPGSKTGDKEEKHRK", "test": "EMSA"}, "His-GAS41": {"molecular_target": "His-GAS41 (UniProt O95619 1-227)", "sequence (O95619 whole entry)": "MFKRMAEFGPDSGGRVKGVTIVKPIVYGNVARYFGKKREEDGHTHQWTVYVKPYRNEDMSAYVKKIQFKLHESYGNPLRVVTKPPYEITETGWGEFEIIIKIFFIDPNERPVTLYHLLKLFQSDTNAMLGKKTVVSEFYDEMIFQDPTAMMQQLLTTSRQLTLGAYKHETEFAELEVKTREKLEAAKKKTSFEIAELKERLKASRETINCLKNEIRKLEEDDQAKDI", "test": "EMSA"}}}
{"binder": "B1", "values": [{"measurement": "binding result", "setting": "GST-AP-2β", "value": "binds"}, {"measurement": "binding result", "setting": "His-GAS41", "value": "no binding"}]}
